# According to patent US20250223339A1 (published 2025):
# Legend:
# Assay in all cases: BLI
# [1] = target: recombinant SARS-CoV-2 Beta RBD
# [2] = target: recombinant SARS-CoV-2 Delta RBD
# recombinant SARS-CoV RBD = recombinant SARS-CoV RBD (SARS-CoV, UniProt P59594 306-527)
# [3] = target: recombinant SARS-CoV-2 Omicron BA.1 RBD
# [4] = target: recombinant SARS-CoV-2 Omicron BA.2 RBD
# [5] = target: recombinant SARS-CoV-2 WT (Wuhan-1) RBD
Binder,Kd [1],Kd [2],Kd (recombinant SARS-CoV RBD),Kd [3],Kd [4],Kd [5]
"ADI-75684 (antibody, V domains shown) V domain 1: QVQLQESGPGLVKPSETLSLTCTVSGGSISSDHFYWGWIRQPPGKGLEWIGTTYYTARTNYNPSLKSRVTISVDTSKNQFSLKLTSVTATDTAIYYCARVEVSGGFSGYDFLTPYYFDYWGQGALVTVSS V domain 2: not shown",1.05 nM,1.89 nM,2.59 nM,1.35 nM,18.4 nM,
"ADI-75859 (antibody, V domains shown) VH: QVQLVQSGGGVGQPGRSLRLSCAASGFTFGHYGMHWVRQAPGKGLEWVAAIIYDGSDKQYADSVKGRFTISRDNSKNTVYLQMNSLRPEDTAIYFCAKLGGLYCSGGNCFSGYFDYWGQGTLVTVSS VL: ETTLTQSPSSLSASVGDRVTITCRASQGISNSLAWYQQKPGKAPKLLLYAASTLESGVPSRFSGSGSGTDFTLTIASLQPEDFATYYCQQYYSSVRFTFGQGTILDLN",0.89 nM,0.82 nM,226 nM,13.3 nM,2.37 nM,0.36 nM
"ADI-75754 (antibody, V domains shown) VH: QVQLVQSGGDLVQPGGSLRLSCVASGFTFSNYEMNWVRQGPGKGLEWISYISTSGSTYYYADSVKGRFTISRDNARNSLYLQMDSLRVEDTAIYYCLTHPQPQYVRPTQVVWFDPWGQGTLVTVSS VL: EMTMTQSPGTLSLSPGERATLSCRASESVSSEYLAWHQQRPGQAPRLLIYGASSRPTGIPDRFSGSGSGTDFTLTISRLEPEDFAVYYCHQFASAPITFGQGTRLEIK",1.61 nM,3.45 nM,1.41 nM,37 nM,> 300 nM,3.58 nM
"ADI-75738 (antibody, V domains shown) VH: QVQLQQWGAGLLKPSETLSLTCGVHDGAFSGYFWNWIRQSPVKGLEWIGEVTHSGNTNYNPSLKSRVTMSVDASKNEFSLNLTSVTAADTAVYYCARGDFYSTRLAFDVWGQGSMVTVSS VL: EIVLTQSPATLSLSPGERATLSCRASQSVSTYLAWYQQRPGQAPRLLIYDASNRATGIPARFSGSGSETDFTLTISSLEPEDFAVYYCQQRSNWLTFGGGTKVEIK",0.56 nM,1.53 nM,150 nM,2.77 nM,1.59 nM,0.26 nM
"ADI-75700 (antibody, V domains shown) VH: QVQLQQWGAGLLKPSETLSLTCGVYDGSFSDYFWNWIRQPPGKGLEWIGELTHTGSTNYNPSLKSRVTILADTSKSQFSLNLSSVTAADTAVYYCARGDFYSTRLAFDLWGQGTTVTVSS VL: EIALTQSPATLSLSPGERATLSCRASQSVSTYLAWYQQKPGQAPRLLIYDASKRATGIPARFNGSGSGTDFTLTISSLEPEDFAVYYCQQRSTWPTFGGGTKVDIK",1.23 nM,1.22 nM,62.2 nM,7.01 nM,2.51 nM,0.24 nM
